Measurements published in patent publication KR20220012792A (dated 2022).
Like-named read-outs stand apart in the source and are kept apart here.

Assays:
Experiment in all cases: cell-based or functional assay
[1] = target: T1, S 단백질 of SARS-CoV-2 BetaCoV/Korea/KCDC03/2020 (614D, S형) (SARS-CoV-2)
[2] = target: T1, S 단백질 of SARS-CoV-2 …; remark: listed apart in the source
[3] = target: S 단백질 of SARS-CoV-2 hCoV-19/South Korea/KNIH04/2020 (L형) (SARS-CoV-2)
[4] = target: T1, S 단백질 of SARS-CoV-2 …; remark: listed apart in the source
[5] = target: S 단백질 of SARS-CoV-2 hCoV-19/Korea/KCDC31/2020 (V형) (SARS-CoV-2)

B1: No. 139 항체 (Full IgG) (antibody, V domains shown)
VH: QITLKESGPTLVKPTQTLTLTCSFSGFSLSTSGVGVGWIRQPPGKALEWLALIDWDDNKYHTTSLKTRLTISKDTSKNQVVLTMTNMDPVDTATYYCARIPGFLRYRNRYYYYGMDVWGQGTTVTVSS
VL: ELVLTQPPSVSAAPGQKVTISCSGSSSNIGNNYVSWYQQLPGTAPKLLIYDNNKRPSGIPDRFSGSKSGTSATLGITGLQTGDEADYYCGTWDSSLSAGVFGGGTELTVL
- IC50 (ng/ml), PRNT [1]: 4.1 ng/mL
- IC50, PRNT [1]: 8.37 ng/mL
- IC50 (ng/ml), PRNT [2]: 29.8 ng/mL
- IC50 (ng/ml), PRNT [3]: 4.79 ng/mL
- IC50 (ng/ml), PRNT [4]: 6.76 ng/mL
- IC50 (ng/ml), PRNT [5]: 8 ng/mL
